Entries after “also recorded” stand apart in the source; their conditions may differ.
Experiments:
canine PTH1 receptor [1] = target: T1, canine PTH1 receptor (Canis lupus familiaris, UniProt Q9TU31); assay: Whole cell 125I-human PTH (1-34) competition binding to canine PTH1 transiently transfected CHO cells; settings: canine PTH1/pCR3.1 transiently transfected CHO cells, 2 hours on ice
T1 construct: A 1868 bp DNA fragment containing the complete coding region of canine PTH1 was generated by PCR; expressed in transfected cells; host or cells: CHO-K1 cells, transient transfection with canine PTH1-pCR3.1
T1 sequence (Q9TU31 29-595): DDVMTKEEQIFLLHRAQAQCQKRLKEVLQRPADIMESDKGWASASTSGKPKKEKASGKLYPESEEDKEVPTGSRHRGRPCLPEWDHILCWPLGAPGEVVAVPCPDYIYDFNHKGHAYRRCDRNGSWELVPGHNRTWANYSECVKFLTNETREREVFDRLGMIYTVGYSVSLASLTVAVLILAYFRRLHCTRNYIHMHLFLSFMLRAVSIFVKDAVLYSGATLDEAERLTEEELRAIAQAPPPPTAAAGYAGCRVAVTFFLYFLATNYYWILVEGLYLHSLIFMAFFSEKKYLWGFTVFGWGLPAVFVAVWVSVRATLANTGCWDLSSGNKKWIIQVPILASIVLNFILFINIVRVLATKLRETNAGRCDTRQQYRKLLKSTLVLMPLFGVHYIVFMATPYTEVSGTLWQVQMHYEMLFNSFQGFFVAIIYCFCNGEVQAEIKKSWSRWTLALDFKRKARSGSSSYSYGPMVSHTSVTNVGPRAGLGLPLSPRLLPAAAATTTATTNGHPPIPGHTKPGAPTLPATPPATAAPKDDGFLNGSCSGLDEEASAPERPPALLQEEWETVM
Description: (§1) CHO-K1 cells were purchased from ATCC (Rockville, Md.) and maintained in Dulbecco's modified Eagle's medium/F12 (DMEM/F12, Life Technologies, Gaithersburg, Md.) supplemented with 10% fetal calf serum (FCS, Gemini Bio-Products, Calabasas, Calif.). CHO cells were plated in 12 and 24-well plates (Becton Dickinson, Franklin Lakes, N.J.) at 1.6×10^6 cells/plate in DMEM/F12 supplemented with 10% FCS. 24 hours later, each plate of cells was transfected with 10 μg of the canine PTH1-pCR3.1 expression plasmid using Lipofectamine reagent (Life Technologies). Total volume of DNA-lipofectamine mix was 500 μl/well and 250 μl/well in the 12- and 24-well plates, respectively. After 5 hours, an equal volume of media supplemented with 20% FCS was added to each well and after 24 hours, the media was replaced with growth media. The cells were then allowed to grow for an additional 24 hours, at which time the cells in the 24-well plates were used in the PTH binding assay and the cells in the 12-well plates were used to determine receptor activation by measuring cAMP.
(§2) ^125I-human PTH 1-34 amide (2000 Ci/mmol) was purchased from Amersham (Arlington Heights, Ill.). Human PTH 1-34 and human PTHrP 1-34 were purchased from Peninsula Laboratories (San Carlos, Calif.). Canine PTH (1-34) and PTHrP (1-34) (Rosol, 1995) were custom synthesized by Princeton BioMolecules (Columbus, Ohio). Human aldosterone secretion inhibitory factor (1-35), used as a similarly sized non-specific peptide, was purchased from Sigma.
Canine PTH1 transiently transfected CHO cells in 24-well plates were subjected to whole cell human ^125I-PTH (1-34) competition binding. Culture media was removed, cell monolayers washed once each with ice-cold Dulbecco's phosphate buffered saline (Life Technologies) and ice-cold assay buffer (AB; 50 mM Tris-HCl, 100 mM NaCl, 2 mM CaCl2, 5 mM KCl, 0.5% heat inactivated FCS (Life Technologies), and 5% heat-inactivated horse serum (Life Technologies), pH 7.7). Subsequent to adding 225 μl of AB to each well, 25 μl of 10x peptide (10^−4- […]) in AB containing 800 cpms/μl of ^125I-human PTH (1-34) was added to each of three wells. Plates were incubated for 2 hours on ice, binding mix removed by aspiration, washed 2x with ice-cold assay AB, cells solubilized in 1% SDS and total bound counts determined. Percent bound ^125I-PTH (1-34) was calculated using the following equation: [formula]

canine PTH1 receptor [2] = target: T1, canine PTH1 receptor; assay: Intracellular cAMP accumulation in CHO cells transiently transfected with canine PTH1; assay type: cell-based; settings: peptide 10^-7 M, 15 minutes at 37° C.
Description: as §1, §2
To measure stimulation of cAMP production, cells transiently transfected with canine PTH1 were rinsed once with test medium (serum-free DMEM/F12 containing 0.2 mM 3-isobutyl-1-methylxanthine (IBMX; Calbiochem, La Jolla, Calif.)), then preincubated with 1 ml/well test medium for 10 minutes at 37° C. This medium was removed and cells were incubated with test medium containing the indicated peptides (10^−7 M) for 15 minutes at 37° C. […] Upon thawing cAMP was measured using a commercially available ELISA kit (Cayman Chemical, Ann Arbor, Mich.).

Row | Substance | binding to canine PTH1 (displacement of 125I-hPTH (1-34)) (canine PTH1 receptor [1]) | binding to canine PTH1 (displacement of 125I-hPTH (1-34)) (canine PTH1 receptor [1]; listed as Human PTH) | intracellular cAMP accumulation (PTH1 activation) (canine PTH1 receptor [2]) | binding to canine PTH1 (displacement of 125I-hPTH (1-34)) (canine PTH1 receptor [1]; listed as canine PTHrP) | binding to canine PTH1 (displacement of 125I-hPTH (1-34)) (canine PTH1 receptor [1]; listed as canine/human parathyroid hormone related peptide (PTHrP) (1-34)) | binding to canine PTH1 (displacement of 125I-hPTH (1-34)) (canine PTH1 receptor [1]; listed as canine PTH)
1 | human PTH (1-34): Human parathyroid hormone fragment 1-34, purchased from Peninsula Laboratories | specific displacement; also recorded: high affinity binding | specific binding | increase in intracellular cAMP | – | – | –
2 | canine/human PTHrP (1-34): Canine/human parathyroid hormone related peptide fragment 1-34 | high affinity binding | – | increase in intracellular cAMP | specific binding | specific displacement | –
3 | canine PTH (1-34): Canine parathyroid hormone fragment 1-34, custom synthesized by Princeton BioMolecules (SVSEIQFMHNLGKHLSSMERVEWLRKKLQDVHNF) | specific displacement; also recorded: high affinity binding | – | increase in intracellular cAMP | – | – | specific binding

Reference: US20020146777A1, “Canine parathyroid hormone 1 receptor” (priority 2000, published 2002)
